# Results taken from patent US20220227882A1 (TRUSTEES OF TUFTS COLLEGE, published 2022).
# T1: V459A (Homo sapiens, UniProt P78325)
# T1 construct: expressed on HEK293 cells; also called human ADAM8 point mutant V459A
# T1 sequence (ADAM8, looked up): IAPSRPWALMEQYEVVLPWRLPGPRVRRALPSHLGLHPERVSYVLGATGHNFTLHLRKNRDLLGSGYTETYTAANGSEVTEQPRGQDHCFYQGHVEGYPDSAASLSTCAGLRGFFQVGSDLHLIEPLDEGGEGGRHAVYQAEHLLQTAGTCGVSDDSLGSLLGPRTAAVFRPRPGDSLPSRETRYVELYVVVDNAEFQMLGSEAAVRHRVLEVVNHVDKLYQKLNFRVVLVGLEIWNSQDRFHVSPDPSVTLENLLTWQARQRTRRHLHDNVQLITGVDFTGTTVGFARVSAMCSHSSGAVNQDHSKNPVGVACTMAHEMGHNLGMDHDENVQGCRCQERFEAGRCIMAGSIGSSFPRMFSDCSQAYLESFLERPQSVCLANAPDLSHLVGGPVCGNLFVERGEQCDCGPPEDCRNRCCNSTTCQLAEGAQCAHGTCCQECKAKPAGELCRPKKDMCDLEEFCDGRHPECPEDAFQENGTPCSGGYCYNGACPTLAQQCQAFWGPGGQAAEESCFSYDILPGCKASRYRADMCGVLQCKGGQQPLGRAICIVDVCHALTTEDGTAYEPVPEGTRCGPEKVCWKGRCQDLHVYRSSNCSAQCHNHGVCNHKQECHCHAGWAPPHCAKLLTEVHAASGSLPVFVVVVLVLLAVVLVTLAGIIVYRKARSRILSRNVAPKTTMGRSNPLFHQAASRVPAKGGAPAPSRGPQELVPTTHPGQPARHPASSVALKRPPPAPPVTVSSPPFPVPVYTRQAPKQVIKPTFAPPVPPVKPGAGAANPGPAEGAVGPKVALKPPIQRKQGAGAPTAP
# T2: Q447A (Homo sapiens, UniProt P78325)
# T2 construct: expressed on HEK293 cells; also called human ADAM8 point mutant Q447A
# T2 sequence (ADAM8, looked up): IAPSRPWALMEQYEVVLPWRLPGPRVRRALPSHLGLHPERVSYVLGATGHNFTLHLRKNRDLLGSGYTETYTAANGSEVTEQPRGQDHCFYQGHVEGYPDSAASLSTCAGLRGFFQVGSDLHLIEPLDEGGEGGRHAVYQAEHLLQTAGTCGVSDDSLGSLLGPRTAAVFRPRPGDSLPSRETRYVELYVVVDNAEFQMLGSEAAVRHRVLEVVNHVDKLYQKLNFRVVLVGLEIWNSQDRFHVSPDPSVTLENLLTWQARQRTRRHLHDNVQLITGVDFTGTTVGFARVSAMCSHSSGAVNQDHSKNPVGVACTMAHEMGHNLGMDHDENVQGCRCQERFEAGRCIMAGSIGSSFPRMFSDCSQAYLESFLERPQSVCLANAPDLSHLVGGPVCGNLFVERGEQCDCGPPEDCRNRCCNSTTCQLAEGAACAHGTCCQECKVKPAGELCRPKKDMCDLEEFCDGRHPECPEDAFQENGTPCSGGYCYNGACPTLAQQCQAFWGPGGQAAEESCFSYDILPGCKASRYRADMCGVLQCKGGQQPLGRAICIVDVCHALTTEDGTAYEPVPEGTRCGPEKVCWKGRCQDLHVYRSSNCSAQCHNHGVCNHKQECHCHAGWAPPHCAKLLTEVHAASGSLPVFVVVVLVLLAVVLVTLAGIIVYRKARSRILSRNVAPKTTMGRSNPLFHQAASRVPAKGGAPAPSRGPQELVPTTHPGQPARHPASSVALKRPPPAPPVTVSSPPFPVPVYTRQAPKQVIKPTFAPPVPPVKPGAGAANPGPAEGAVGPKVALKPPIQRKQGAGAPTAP
# Experiments:
# V459A = target: T1, V459A; test: high-throughput flow cytometry, HEK293 cells with mutant ADAM8, high stringency; range in parentheses
# Experimental: (§1) A variety of experimental parameters were optimized for high-throughput flow cytometry including blocking buffer, and primary and secondary antibody concentrations, to identify the optimal conditions for screening. Through these studies ADP2 and ADP13 were determined to be high affinity binding antibodies.
# (§2) Thus, for these studies antigen-binding fragments (Fabs) of ADP2 and ADP13, which bind with lower affinity than the full antibody, were generated. In addition, higher binding stringency conditions were tested, such as increased pH, salinity, and temperature, and/or increased washing, to weaken binding sufficiently to allow identification of critical binding residues in flow cytometry. The final experimental flow cytometry conditions were: primary antibody incubation with ADP2 Fab (0.50 μg/ml), ADP13 Fab (5.00 μg/ml) and Control Ab (0.16 μg/ml) for 60 minutes in flow cytometry buffer containing 10% goat serum in PBS (Ca²⁺ and Mg²⁺ free). […] Samples were washed three times after primary antibody incubation and twice after secondary antibody incubation with PBS (Ca²⁺ and Mg′ free). Next, HEK293 cells expressing WT or mutated ADAM8 proteins or EV DNA were incubated with ADP2 or ADP13 Fabs or Control Ab at their optimal concentrations. Fab binding was detected using Alexa Fluor 488-conjugated secondary antibodies and mean cellular fluorescence determined using the Intellicyt iQue flow cytometry platform. […] This counter-screen strategy facilitates the exclusion of mutants that are locally misfolded or that have an expression defect. Binding of each test Fab to each mutant clone in the alanine scanning library was determined, in duplicate, by high-throughput flow cytometry.
# Q447A = target: T2, Q447A; test: as above
# Experimental: as §1, §2
binder,measurement,setting,value
"ADP2 Fab (Fab, V domains shown) VH: EVKLVESGGGLVQPGGSLSLSCAASGFSFPDYYMSWVRQPPGKALEWLGFIRDSANGYTTEYIASVKGRFTFSRDNSQSILYLQMNALRAEDSATYYCARYSRYYGMDYWGQGTSVTVSS VL: SIVMTQTPKILLVSAGDRVTITCKASQTVNYDVAWYQQKPGQSPKPVIYFASNRYTGVPDRFTGSGFGTDFTFTISTVQAEDLAVYFCQQDYSAPWTFGGGTKLEIK",Binding Reactivity (% WT),V459A,55.6 % WT
same,Binding Reactivity (% WT),Q447A,46.5 % WT
